# Source: US20240209076A1 (KODIAK SCIENCES, published 2024)
# Where a chain is given by its changes, count along the chain named. Names and notes keep the numbering of the source.
# B1: anti-IL-6 antibody, heavy chain A49T, light chain WT (antibody, IgG1, V domains shown)
# VH: EVQLVESGGGLVQPGGSLRLSCAASGFTFSPFAMSWVRQAPGKGLEWVTKISPGGSWTYYSDTVTGRFTFSLDTSKSTAYLQMNSLRAEDTAVYYCARQLWGYYALDIWGQGTLVTVSS
# VL: DIQLTQSPSSLSASVGDRVTITCSASISVSYMYWYQQKPGKAPKLLIYDMSNLASGVPSRFSGSGSGTDFTLTISSLQPEDFATYYCMQWSGYPYTFGQGTKVEIK
# notes: Full IgG1 tested; V domains derived as in m2
# B2: anti-IL-6 antibody, heavy chain S30W, light chain WT (antibody, IgG1, V domains shown)
# VH: B1 VH with S30W, T49A
# VL: B1 VL
# notes: as for B1
# B3: anti-IL-6 antibody, heavy chain F27V, light chain WT (antibody, IgG1, V domains shown)
# VH: B1 VH with F27V, T49A
# VL: B1 VL
# notes: as for B1
# B4: anti-IL-6 antibody, heavy chain S61R, light chain WT (antibody, IgG1, V domains shown)
# VH: B1 VH with T49A, S61R
# VL: B1 VL
# notes: as for B1
# B5: anti-IL-6 antibody, heavy chain S61A, light chain WT (antibody, IgG1, V domains shown)
# VH: B1 VH with T49A, S61A
# VL: B1 VL
# notes: as for B1
# B6: anti-IL-6 antibody, heavy chain T28A, light chain WT (antibody, IgG1, V domains shown)
# VH: B1 VH with T28A, T49A
# VL: B1 VL
# notes: as for B1
# B7: anti-IL-6 antibody, heavy chain L106I, light chain WT (antibody, IgG1, V domains shown)
# VH: B1 VH with T49A, L106I
# VL: B1 VL
# notes: as for B1
# B8: anti-IL-6 antibody, heavy chain Q99A, light chain WT (antibody, IgG1, V domains shown)
# VH: B1 VH with T49A, Q99A
# VL: B1 VL
# notes: as for B1
# B9: anti-IL-6 antibody, heavy chain A97V, light chain WT (antibody, IgG1, V domains shown)
# VH: B1 VH with T49A, A97V
# VL: B1 VL
# notes: as for B1
# B10: anti-IL-6 antibody, heavy chain T58V, light chain WT (antibody, IgG1, V domains shown)
# VH: B1 VH with T49A, T58V
# VL: B1 VL
# notes: as for B1
# B11: anti-IL-6 antibody, heavy chain T58R, light chain WT (antibody, IgG1, V domains shown)
# VH: B1 VH with T49A, T58R
# VL: B1 VL
# notes: as for B1
# B12: anti-IL-6 antibody, heavy chain D62F, light chain WT (antibody, IgG1, V domains shown)
# VH: B1 VH with T49A, D62F
# VL: B1 VL
# notes: as for B1
# B13: anti-IL-6 antibody, heavy chain T28E, light chain WT (antibody, IgG1, V domains shown)
# VH: B1 VH with T28E, T49A
# VL: B1 VL
# notes: as for B1
# B14: anti-IL-6 antibody, heavy chain T65Y, light chain WT (antibody, IgG1, V domains shown)
# VH: B1 VH with T49A, T65Y
# VL: B1 VL
# notes: as for B1
# B15: anti-IL-6 antibody, heavy chain Q99H, light chain WT (antibody, IgG1, V domains shown)
# VH: B1 VH with T49A, Q99H
# VL: B1 VL
# notes: as for B1
# B16: anti-IL-6 antibody, heavy chain S35Q, light chain WT (antibody, IgG1, V domains shown)
# VH: B1 VH with S35Q, T49A
# VL: B1 VL
# notes: as for B1
# B17: anti-IL-6 antibody, heavy chain S30Y, light chain WT (antibody, IgG1, V domains shown)
# VH: B1 VH with S30Y, T49A
# VL: B1 VL
# notes: as for B1
# B18: anti-IL-6 antibody, heavy chain S35H, light chain WT (antibody, IgG1, V domains shown)
# VH: B1 VH with S35H, T49A
# VL: B1 VL
# notes: as for B1
# B19: anti-IL-6 antibody, heavy chain G102D, light chain WT (antibody, IgG1, V domains shown)
# VH: B1 VH with T49A, G102D
# VL: B1 VL
# notes: as for B1
# B20: anti-IL-6 antibody, heavy chain T63G, light chain WT (antibody, IgG1, V domains shown)
# VH: B1 VH with T49A, T63G
# VL: B1 VL
# notes: as for B1
# B21: anti-IL-6 antibody, heavy chain T28Y, light chain WT (antibody, IgG1, V domains shown)
# VH: B1 VH with T28Y, T49A
# VL: B1 VL
# notes: as for B1
# B22: anti-IL-6 antibody, heavy chain T63K, light chain WT (antibody, IgG1, V domains shown)
# VH: B1 VH with T49A, T63K
# VL: B1 VL
# notes: as for B1
# B23: anti-IL-6 antibody, heavy chain T65G, light chain WT (antibody, IgG1, V domains shown)
# VH: B1 VH with T49A, T65G
# VL: B1 VL
# notes: as for B1
# B24: anti-IL-6 antibody, heavy chain F27G, light chain WT (antibody, IgG1, V domains shown)
# VH: B1 VH with F27G, T49A
# VL: B1 VL
# notes: as for B1
# B25: anti-IL-6 antibody, heavy chain S30G, light chain WT (antibody, IgG1, V domains shown)
# VH: B1 VH with S30G, T49A
# VL: B1 VL
# notes: Full IgG1 tested; V domains derived as in m2; also called S30G (heavy chain)
# B26: anti-IL-6 antibody, heavy chain T63D, light chain WT (antibody, IgG1, V domains shown)
# VH: B1 VH with T49A, T63D
# VL: B1 VL
# notes: as for B1
# B27: anti-IL-6 antibody, heavy chain R98G, light chain WT (antibody, IgG1, V domains shown)
# VH: B1 VH with T49A, R98G
# VL: B1 VL
# notes: as for B1
# B28: anti-IL-6 antibody, heavy chain S56R, light chain WT (antibody, IgG1, V domains shown)
# VH: B1 VH with T49A, S56R
# VL: B1 VL
# notes: as for B1
# B29: anti-IL-6 antibody, heavy chain S56H, light chain WT (antibody, IgG1, V domains shown)
# VH: B1 VH with T49A, S56H
# VL: B1 VL
# notes: as for B1
# B30: anti-IL-6 antibody, heavy chain T58K, light chain WT (antibody, IgG1, V domains shown)
# VH: B1 VH with T49A, T58K
# VL: B1 VL
# notes: as for B1
# B31: anti-IL-6 antibody, heavy chain A105Q, light chain WT (antibody, IgG1, V domains shown)
# VH: B1 VH with T49A, A105Q
# VL: B1 VL
# notes: as for B1
# B32: anti-IL-6 antibody, heavy chain F27S, light chain WT (antibody, IgG1, V domains shown)
# VH: B1 VH with F27S, T49A
# VL: B1 VL
# notes: as for B1
# B33: anti-IL-6 antibody, heavy chain T63E, light chain WT (antibody, IgG1, V domains shown)
# VH: B1 VH with T49A, T63E
# VL: B1 VL
# notes: as for B1
# B34: anti-IL-6 antibody, heavy chain A105H, light chain WT (antibody, IgG1, V domains shown)
# VH: B1 VH with T49A, A105H
# VL: B1 VL
# notes: as for B1
# B35: anti-IL-6 antibody, heavy chain T28K, light chain WT (antibody, IgG1, V domains shown)
# VH: B1 VH with T28K, T49A
# VL: B1 VL
# notes: as for B1
# B36: anti-IL-6 antibody, heavy chain T63Q, light chain WT (antibody, IgG1, V domains shown)
# VH: B1 VH with T49A, T63Q
# VL: B1 VL
# notes: as for B1
# B37: anti-IL-6 antibody, heavy chain F27P, light chain WT (antibody, IgG1, V domains shown)
# VH: B1 VH with F27P, T49A
# VL: B1 VL
# notes: as for B1
# B38: anti-IL-6 antibody, heavy chain F27R, light chain WT (antibody, IgG1, V domains shown)
# VH: B1 VH with F27R, T49A
# VL: B1 VL
# notes: as for B1
# Target: T1, recombinant human IL-6 (human, UniProt P05231 30-212)
# T1 construct: Flowed in solution over the captured antibodies
# Test: SPR (Biacore), supernatant IgG on Protein A, 25 C
# Procedure: Antibodies were captured on a Protein A chip (GE) by injecting 1:20 dilution of cell supernatant at 10 μL/min for 60 seconds. […] The sensor chip was regenerated by a 60 seconds injection of 10 mM Glycine pH 1.7 at flow rate of 50 μL/min. […] For this setup, 1 μg/mL of purified antibody was injected over a Protein A chip at 10 μL/min for 25-28 seconds. Data analysis for supernatant and purified samples were performed using BIAevaluation software (GE). All sensorgrams were double reference subtracted and fit using a 1:1 Langmuir binding model.
# T1 sequence (P05231 30-212 limits assumed): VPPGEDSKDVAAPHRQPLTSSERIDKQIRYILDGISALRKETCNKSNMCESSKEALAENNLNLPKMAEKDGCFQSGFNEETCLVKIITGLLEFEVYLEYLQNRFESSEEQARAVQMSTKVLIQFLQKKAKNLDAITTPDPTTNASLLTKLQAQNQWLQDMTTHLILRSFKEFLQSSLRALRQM
Binder,Kd,koff,kon
B1,0.337 nM,0.000151 s⁻¹,448000 M⁻¹ s⁻¹
B2,0.376 nM,0.000157 s⁻¹,417000 M⁻¹ s⁻¹
B3,0.442 nM,0.000208 s⁻¹,470000 M⁻¹ s⁻¹
B4,0.467 nM,0.000162 s⁻¹,348000 M⁻¹ s⁻¹
B5,0.394 nM,0.000149 s⁻¹,379000 M⁻¹ s⁻¹
B6,0.354 nM,0.000139 s⁻¹,393000 M⁻¹ s⁻¹
B7,0.279 nM,0.000134 s⁻¹,479000 M⁻¹ s⁻¹
B8,2 nM,0.000737 s⁻¹,368000 M⁻¹ s⁻¹
B9,0.574 nM,0.000179 s⁻¹,311000 M⁻¹ s⁻¹
B10,0.226 nM,0.000181 s⁻¹,803000 M⁻¹ s⁻¹
B11,0.426 nM,0.000152 s⁻¹,357000 M⁻¹ s⁻¹
B12,0.35 nM,0.000147 s⁻¹,420000 M⁻¹ s⁻¹
B13,0.347 nM,0.000163 s⁻¹,469000 M⁻¹ s⁻¹
B14,0.275 nM,0.000206 s⁻¹,749000 M⁻¹ s⁻¹
B15,1.94 nM,0.00105 s⁻¹,539000 M⁻¹ s⁻¹
B16,0.346 nM,0.00013 s⁻¹,375000 M⁻¹ s⁻¹
B17,0.334 nM,0.000122 s⁻¹,365000 M⁻¹ s⁻¹
B18,0.379 nM,0.000132 s⁻¹,348000 M⁻¹ s⁻¹
B19,1.33 nM,0.0006 s⁻¹,452000 M⁻¹ s⁻¹

Binder,Kd,koff,kon
B20,0.404 nM,0.000209 s⁻¹,517000 M⁻¹ s⁻¹
B21,0.412 nM,0.000137 s⁻¹,332000 M⁻¹ s⁻¹
B22,0.388 nM,0.000212 s⁻¹,546000 M⁻¹ s⁻¹
B23,0.0954 nM,5.69e-05 s⁻¹,597000 M⁻¹ s⁻¹
B24,0.24 nM,0.000206 s⁻¹,856000 M⁻¹ s⁻¹
B25,0.333 nM,0.000132 s⁻¹,398000 M⁻¹ s⁻¹
B26,0.423 nM,0.000174 s⁻¹,410000 M⁻¹ s⁻¹
B27,1.42 nM,0.000251 s⁻¹,176000 M⁻¹ s⁻¹
B28,0.567 nM,0.000155 s⁻¹,273000 M⁻¹ s⁻¹
B29,0.452 nM,0.000161 s⁻¹,356000 M⁻¹ s⁻¹
B30,0.39 nM,0.000179 s⁻¹,460000 M⁻¹ s⁻¹
B31,1.04 nM,0.000493 s⁻¹,474000 M⁻¹ s⁻¹
B32,0.278 nM,0.000203 s⁻¹,731000 M⁻¹ s⁻¹
B33,0.445 nM,0.000169 s⁻¹,380000 M⁻¹ s⁻¹
B34,1.79 nM,0.000723 s⁻¹,404000 M⁻¹ s⁻¹
B35,0.37 nM,0.000143 s⁻¹,386000 M⁻¹ s⁻¹
B36,0.594 nM,0.000184 s⁻¹,309000 M⁻¹ s⁻¹
B37,0.344 nM,0.000196 s⁻¹,570000 M⁻¹ s⁻¹
B38,0.415 nM,0.000209 s⁻¹,503000 M⁻¹ s⁻¹
